{"source": "patent US6995018", "about": "(US Dept. of Health and Human Services, dated 2006)", "key": {"[1]": {"target": "T1, human complement Factor H (human, UniProt P08603 19-1231)", "T1 construct": "In some experiments Factor H is the endogenous protein of normal human serum; also called fH; purified human Factor H (Quidel)", "T1 sequence (P08603 19-1231 limits assumed)": "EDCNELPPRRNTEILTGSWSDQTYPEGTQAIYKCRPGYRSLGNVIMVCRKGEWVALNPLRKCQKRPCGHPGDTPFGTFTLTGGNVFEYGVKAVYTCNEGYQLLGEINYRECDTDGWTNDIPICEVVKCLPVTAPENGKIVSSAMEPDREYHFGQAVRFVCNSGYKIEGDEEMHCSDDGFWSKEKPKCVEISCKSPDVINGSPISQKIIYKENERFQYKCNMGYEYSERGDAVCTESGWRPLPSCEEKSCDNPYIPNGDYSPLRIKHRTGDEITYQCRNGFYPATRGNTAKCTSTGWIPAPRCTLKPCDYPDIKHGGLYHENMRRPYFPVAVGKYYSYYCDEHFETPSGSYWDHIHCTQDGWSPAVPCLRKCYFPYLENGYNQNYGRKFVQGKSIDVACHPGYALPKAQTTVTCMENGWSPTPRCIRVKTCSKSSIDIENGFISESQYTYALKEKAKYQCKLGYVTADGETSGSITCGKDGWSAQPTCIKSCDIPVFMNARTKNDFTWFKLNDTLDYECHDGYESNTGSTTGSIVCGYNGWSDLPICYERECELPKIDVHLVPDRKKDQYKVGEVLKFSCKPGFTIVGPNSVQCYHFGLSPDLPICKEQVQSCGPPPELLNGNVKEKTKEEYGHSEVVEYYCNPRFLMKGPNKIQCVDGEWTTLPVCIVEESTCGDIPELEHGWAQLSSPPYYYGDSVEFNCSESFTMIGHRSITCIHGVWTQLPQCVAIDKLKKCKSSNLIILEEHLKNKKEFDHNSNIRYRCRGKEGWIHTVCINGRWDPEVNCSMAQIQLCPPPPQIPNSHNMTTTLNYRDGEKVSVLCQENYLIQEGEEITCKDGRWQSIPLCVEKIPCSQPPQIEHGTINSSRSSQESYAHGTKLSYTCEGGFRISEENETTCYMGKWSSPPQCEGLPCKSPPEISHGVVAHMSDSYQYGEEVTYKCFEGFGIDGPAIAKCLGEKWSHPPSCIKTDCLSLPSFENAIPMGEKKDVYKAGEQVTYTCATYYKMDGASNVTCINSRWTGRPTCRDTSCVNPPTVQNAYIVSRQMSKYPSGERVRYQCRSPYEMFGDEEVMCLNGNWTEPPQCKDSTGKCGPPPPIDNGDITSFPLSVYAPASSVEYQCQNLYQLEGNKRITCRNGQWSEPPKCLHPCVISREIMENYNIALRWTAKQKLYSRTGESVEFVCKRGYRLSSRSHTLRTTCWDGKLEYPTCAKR", "test": "steady state fluorescence, titration of purified human Factor H with rDMP1", "description": "(§1) Steady state fluorescence studies were accomplished by titrating purified human complement Factor H with rBSP, rOPN, and rDMP1 followed by excitation at 295 nm and monitoring emission between 300 and 450 nm. The emission profile of Factor H alone yields a peak at 347 nm. The addition of rBSP, rOPN, or rDMP1 in nm increments causes a relative fluorescent intensity quenching. Conversion of the fluorescent intensity titration into a binding curve by determining the fraction of binding sites occupied as the fractional change in fluorescence quenching at 347 nm yields a saturable binding curve. […] Given that normal serum concentration of Factor H is ~0.5 mg/mL it is probable that virtually all BSP, OPN, and DMP1 in serum will be complexed with Factor H."}, "[2]": {"target": "T1, human complement Factor H", "test": "steady state tryptophan fluorescence quenching, titration of Factor H with BSP", "description": "as §1"}, "[3]": {"target": "T2, αVβ3 integrin on murine erythroleukemia (MEL) cells (murine (MEL cells), UniProt P43406 31-1044; O54890 26-787)", "T2 construct": "whole, on cells; also called integrins; cell surface integrins", "T2 sequence (P43406 31-1044, chain 1 of 2)": "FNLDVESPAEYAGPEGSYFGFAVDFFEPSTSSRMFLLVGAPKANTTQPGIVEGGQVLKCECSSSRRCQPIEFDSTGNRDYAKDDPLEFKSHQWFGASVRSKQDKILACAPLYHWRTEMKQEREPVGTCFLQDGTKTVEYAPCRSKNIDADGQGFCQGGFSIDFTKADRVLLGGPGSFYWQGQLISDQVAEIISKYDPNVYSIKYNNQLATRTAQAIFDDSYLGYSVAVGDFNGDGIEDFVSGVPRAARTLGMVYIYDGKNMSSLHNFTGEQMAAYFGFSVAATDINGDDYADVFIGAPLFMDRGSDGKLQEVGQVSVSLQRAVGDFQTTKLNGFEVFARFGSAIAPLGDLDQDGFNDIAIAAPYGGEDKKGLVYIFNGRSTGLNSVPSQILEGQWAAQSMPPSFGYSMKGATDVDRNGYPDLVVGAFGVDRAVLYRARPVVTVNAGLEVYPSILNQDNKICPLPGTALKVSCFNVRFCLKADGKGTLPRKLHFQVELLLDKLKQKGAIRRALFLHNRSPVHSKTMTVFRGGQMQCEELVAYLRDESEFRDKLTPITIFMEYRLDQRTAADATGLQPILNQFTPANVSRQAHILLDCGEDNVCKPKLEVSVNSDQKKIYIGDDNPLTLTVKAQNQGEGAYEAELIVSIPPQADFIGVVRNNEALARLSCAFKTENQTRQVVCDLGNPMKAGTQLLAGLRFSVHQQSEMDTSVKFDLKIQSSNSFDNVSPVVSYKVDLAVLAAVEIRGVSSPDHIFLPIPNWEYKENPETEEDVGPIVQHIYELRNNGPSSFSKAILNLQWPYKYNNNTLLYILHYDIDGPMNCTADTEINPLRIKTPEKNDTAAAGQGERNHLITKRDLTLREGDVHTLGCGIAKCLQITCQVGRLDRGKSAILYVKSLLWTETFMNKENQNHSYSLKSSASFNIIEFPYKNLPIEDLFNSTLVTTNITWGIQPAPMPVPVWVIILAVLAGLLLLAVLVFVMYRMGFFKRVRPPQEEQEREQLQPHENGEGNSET", "T2 sequence (O54890 26-787, chain 2 of 2)": "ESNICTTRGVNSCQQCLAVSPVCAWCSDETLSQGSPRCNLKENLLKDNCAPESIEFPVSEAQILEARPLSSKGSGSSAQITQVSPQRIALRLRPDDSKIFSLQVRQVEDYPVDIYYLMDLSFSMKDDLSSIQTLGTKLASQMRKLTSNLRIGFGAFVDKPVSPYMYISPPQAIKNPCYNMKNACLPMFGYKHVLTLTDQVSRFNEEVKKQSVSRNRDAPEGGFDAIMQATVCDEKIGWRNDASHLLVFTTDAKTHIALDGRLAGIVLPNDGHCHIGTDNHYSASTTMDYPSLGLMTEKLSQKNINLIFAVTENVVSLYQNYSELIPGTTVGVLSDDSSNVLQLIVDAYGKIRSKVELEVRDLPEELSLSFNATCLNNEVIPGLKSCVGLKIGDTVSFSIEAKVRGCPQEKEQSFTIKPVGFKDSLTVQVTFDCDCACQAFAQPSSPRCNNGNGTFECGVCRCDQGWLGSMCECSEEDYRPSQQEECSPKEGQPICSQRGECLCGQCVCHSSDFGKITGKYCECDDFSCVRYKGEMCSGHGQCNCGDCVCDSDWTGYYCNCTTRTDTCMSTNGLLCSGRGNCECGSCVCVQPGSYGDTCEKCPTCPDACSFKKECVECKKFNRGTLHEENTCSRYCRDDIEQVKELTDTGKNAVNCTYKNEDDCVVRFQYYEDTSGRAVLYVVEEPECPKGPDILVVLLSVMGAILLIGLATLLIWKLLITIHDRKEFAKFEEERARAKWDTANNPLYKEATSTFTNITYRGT", "test": "inferred from MEL cell complement lysis assay with GRGDS peptide, αVβ3 antibody and RGD->KAE mutant", "procedure": "MEL cells prepared as in FIG. 8 were treated with normal rBSP (10 μg/mL), rBSP whose RGD sequence had been mutated to KAE ([…]), and either GRGDS (SEQ ID NO: 10) peptide (400 μM) followed by rBSP or an αVβ3 antibody (1:4000) followed by rBSP for 10 minutes prior to the addition of normal human serum. The cells were then incubated for 10 minutes after which cell viability determined using the MTT assay (A). A cohort of MEL cells were pretreated with rOPN (10 μg/mL) alone, GRGDS (SEQ ID NO: 10) peptide followed by rOPN, the αVβ3 antibody followed by rOPN, or an anti-CD44 antibody (Chemicon, Co.) followed by rOPN, or hyaluronan (HA) followed by rOPN (B). Cells were then treated with normal human serum and viability assayed as in FIG. 8. […] Statistical significance was determined by analysis of variance. Percent cell viability was determined using A560 absorbance values of various conditions and a control where no serum had been added (100% viable). […]\nMurine erytliroleukemia (MEL) cells (a gift of Dr. Marilyn Farquhar, Univ. CA San Diego.) grown in DMEM containing 10% fetal bovine serum and 4 mM glutamine were rinsed three times with gelatin veronal buffer with Mg_2^+ and EGTA (GVB-MgEGTA, Sigma, St. Louis, Mo.). […] Cell viability was determined spectrophotometrically by absorbance at 560 nm."}}, "data": [{"binder": "recombinant dentin matrix protein 1 (rDMP1) (ligand) LPVTRYQNNESEDSEEWKGHLAQAPTPPLESSESSEGSKVSSEEQANEDPSDSTQSEEGLGSDDHQYIYRLAGGFSRSTGKGGDDKDDDEDDSGDDTFGDDDSGPGPKDRQEGGNSRLGSDEDSDDTIQASEESAPQGQDSAQDTTSESRELDNEDRVDSKPEGGDSTQESESEEHWVGGGSDGESSHGDGSELDDEGMQSDDPESIRSERGNSRMNSAGMKSKESGENSEQANTQDSGGSQLLEHPSRKIFRKSRISEEDDRSELDDNNTMEEVKSDSTENSNSRDTGLSQPRRDSKGDSQEDSKENLSQEESQNVDGPSSESSQEANLSSQENSSESQEEVVSESRGDNPDPTTSYVEDQEDSDSSEEDSSHTLSHSKSESREEQADSESSESLNFSEESPESPEDENSSSQEGLQSHSSSAESQSEESHSEEDDSDSQDSSRSKEDSNSTESKSSSEEDGQLKNIEIESRKLTVDAYHNKPIGDQDDNDCQDGY", "values": [{"measurement": "stoichiometry (DMP1:Factor H)", "setting": "[1]", "result": 1, "unit": "mol/mol"}]}, {"binder": "recombinant human bone sialoprotein (rBSP) (ligand, post-translationally modified by the producing human marrow stromal fibroblasts (glycosylation, sulfation, phosphorylation; sites not stated), Range 17-317 follows the stated 16-residue leader; not checked against the listing; also called recombinant BSP; purified human BSP) FSMKNLHRRVKIEDSEENGVFKYRPRYYLYKHAYFYPHLKRFPVQGSSDSSEENGDDSSEEEEEEEETSNEGENNEESNEDEDSEAENTTLSATTLGYGEDATPGTGYTGLAAIQLPKKAGDITNKATKEKESDEEEEEEEEGNENEESEAEVDENEQGINGTSTNSTEAENGNGSSGGDNGEEGEEESVTGANAEGTTETGGQGKGTSKTTTSPNGGFEPTTPPQVYRTTSPPFGKTTTVEYEGEYEYTGVNEYDNGYEIYESENGEPRGDNYRAYEDEYSYFKGQGYDGYDGQNYYHHQ", "values": [{"measurement": "Kd", "setting": "[2]", "result": "≤ 1", "unit": "nM"}, {"measurement": "stoichiometry (BSP:Factor H)", "setting": "[2]", "result": 1, "unit": "mol/mol"}, {"measurement": "binding result", "setting": "[3]", "result": "binds"}]}]}
